Entries after “also recorded” stand apart in the source; their conditions may differ. Positions of bridges follow the written chain, without caps; N, C: chain ends. No end group written: not given here.
Experiments:
Met = target: T1, Met (Homo sapiens, UniProt P08581); assay: Met activation ability, SRE luciferase assay in HEK293E cells (HGF-Erk-SRE pathway); format: cell-based; details: for Met activation ability: Example 37, cell-free translation solution diluted, FIG. 69
T1 construct: endogenous in cells; host or cells: HEK293E
Protocol: (§1) The Met activation ability of the HGF-PAS dimer peptide was evaluated by luciferase assay. To 25 μL of Opti-MEM medium (Thermo Fisher Scientific), 0.6 μL of Attractene Transfection Reagent (QIAGEN) was added, and the mixture was incubated at room temperature for 5 minutes. To the above mixed solution, a mixed solution of 25 μL of Opti-MEM and 1 μL of SRE reporter vector (QIAGEN) was added, and the mixture was incubated at room temperature for 20 minutes. This mixed solution was added to a 96-well plate, over which 40,000 cell/well HEK293E cells were seeded and incubated overnight in a 5% CO2 incubator at 37° C. After transfection, all culture supernatant was removed, 100 μL of Opti-MEM medium (evaluation basal medium) containing 0.5% FBS (Thermo Fisher Scientific), 1% non-essential amino acid solution (Thermo Fisher Scientific), and penicillin-streptomycin (Nacalai Tesque) was added, and incubation was performed at 37° C. for 4 hours, and thereby the cells were starved.
To the evaluation basal medium, 0 to 200 ng/mL HGF was added, or 0 to 800 ng/mL AET-PAS-aMD4dY-PEG11, AET-PAS-aMD4-PEG11, or AET-PAS-aMD4-PEG3 was added, or a culture supernatant containing PAS-aMD4dY-PEG11, PAS-aMD4-PEG11, or PAS-aMD4-PEG3 was added so as to be diluted 10-fold with respect to the medium, and the evaluation basal medium was added in an amount of 100 μL to the cells. The cells were stimulated by culturing overnight in a 5% CO2 incubator at 37° C.
The signal intensities were detected using Dual-Luciferase Reporter Assay System (Promega). The medium supernatant in an amount of 100 μL was removed, 50 μL of Glo reagent was added, and the cells were lysed for 10 minutes at room temperature. The luminescence of Firefly luciferase emitted from the cell lysate solution was detected with a plate reader to quantify the activation of the HGF-Erk-SRE pathway. Subsequently, 50 μL of Glo & Stop reagent solution was added, and after 10 minutes, the luminescence of the internal standard Renilla luciferase was detected to quantify the number of cells. The signal activity of each sample was quantified as SRE activity=(Firefly luciferase luminescence intensity)/(Renilla luciferase luminescence intensity). The relative signal activity values for the samples without addition of the evaluation compound were determined and used as relative receptor activity.
as §1, with “peptide linker variant” for “peptide”, “0.6 L” for “0.6 μL”
To the evaluation basal medium, 0 to 100 ng/mL HGF was added, or a culture supernatant containing AET-aMD4dY-PAS8, AET-aMD4dY-PAS22 (the same molecule as AET-PAS-aMD4dY-PEG11), AET-aMD4dY-PAS49, AET-aMD4dY-PAS100, AET-aMD4dY-PAS200, AET-aMD4dY-GS15, or AET-aMD4dY-GS22 was added to the medium so as to be diluted at a predetermined ratio, and the evaluation basal medium was added in an amount of 100 μL to the cells. The cells were stimulated by culturing overnight in a 5% CO2 incubator at 37° C.
The Met activation ability of the stabilized HGF-PAS dimer peptide was evaluated by luciferase assay. […]

VEGFR = target: T2, VEGFR (Homo sapiens, UniProt P35968); assay: VEGF inhibitory ability, luciferase assay in VEGFR/NFAT Reporter HEK293 cells; format: cell-based; details: for VEGF inhibitory activity (relative VEGF activity): 10 ng/mL VEGF
T2 construct: host or cells: VEGFR/NFAT Reporter HEK293 cells
Protocol: The VEGF inhibitory ability of the VEGFR_D2-PAS heterodimer peptide was evaluated by luciferase assay. 40,000 cell/well VEGFR/NFAT Reporter HEK293 cells (BPS Bioscience) were seeded and incubated overnight in a 5% CO2 incubator at 37° C. The cells were incubated overnight in Assay medium (MEM medium (Nacalai Tesque), 1×MEM Non-Essential Amino Acids Solution (Thermo Fisher Scientific), 1 mM Sodium Pyruvate (Nacalai Tesque), 1% Penicillin-Streptomycin (Sigma Aldrich), and 0.3% FBS (Thermo Fisher Scientific)) to starvation. […] The cells were stimulated by culturing in a 5% CO2 incubator at 37° C. for 4 hours.
One-Glo Luciferase Assay System (Promega) was used to detect the signal intensity. Medium supernatant in an amount of 50 μL was removed, 50 μL of One-Glo reagent was added, and the cells were lysed for 10 minutes at room temperature. The luminescence emitted from the cell lysate solution was detected with a Nivo plate reader (Perkin Elmer) to quantify the activation of the VEGFR-NFAT pathway, and the relative signal activity value for the sample without addition of evaluation compound was determined and used as relative receptor activity.
The VEGF inhibitory ability of the cell-free expressed VEGFR_D2-PAS heterodimer peptide was evaluated by luciferase assay. 40,000 cell/well VEGFR/NFAT Reporter HEK293 cells (BPS Bioscience) were seeded and incubated overnight in a 5% CO2 incubator at 37° C. The cells were incubated overnight in Assay medium (MEM medium (Nacalai Tesque), 1×MEM Non-Essential Amino Acids Solution (Thermo Fisher Scientific), 1 mM Sodium Pyruvate (Nacalai Tesque), 1% Penicillin-Streptomycin (Sigma Aldrich), and 0.3% FBS (Thermo Fisher Scientific)) to starvation. To the Assay medium, 100 μL of 10 ng/mL human recombinant VEGF (R&D Systems) was added, and further, MAET-VEGFR_D2-PAS16, MAET-VEGFR_D2-PAS49-b, MAET-VEGFR_D2-PAS100-b, or a cell-free expression solution containing MAET-VEGFR_D2-GS16, or a cell-free expression solution with unexpressed peptide was added at a predetermined dilution factor, and 100 μL of the Assay medium was added to the cells. The cells were stimulated by culturing in a 5% CO2 incubator at 37° C. for 4 hours.
The VEGF inhibitory ability of the VEGFR_D2-PAS heterodimer peptide linker variant was evaluated by luciferase assay. 40,000 cell/well VEGFR/NFAT Reporter HEK293 cells (BPS Bioscience) were seeded and incubated overnight in a 5% CO2 incubator at 37° C. The cells were incubated overnight in Assay medium (MEM medium (Nacalai Tesque), 1×MEM Non-Essential Amino Acids Solution (Thermo Fisher Scientific), 1 mM Sodium Pyruvate (Nacalai Tesque), 1% Penicillin-Streptomycin (Sigma Aldrich), and 0.3% FBS (Thermo Fisher Scientific)) to starvation. To the Assay medium, 10 ng/mL human recombinant VEGF (R&D Systems) was added, and further, a culture supernatant containing VEGFR_D2-PAS16, VEGFR_D2-PAS49, or VEGFR_D2-PAS100 at a predetermined concentration was added, and 100 μL of the Assay medium was added to the cells. The cells were stimulated by culturing in a 5% CO2 incubator at 37° C. for 4 hours. Note that VEGFR_D2-PAS16 was obtained according to the method described in Example 27.

Met (HGF receptor) = Met (HGF receptor) (UniProt P08581 25-1390, limits assumed); assay: cell-based or functional assay
Met (HGF receptor), sequence (P08581 25-1390 limits assumed): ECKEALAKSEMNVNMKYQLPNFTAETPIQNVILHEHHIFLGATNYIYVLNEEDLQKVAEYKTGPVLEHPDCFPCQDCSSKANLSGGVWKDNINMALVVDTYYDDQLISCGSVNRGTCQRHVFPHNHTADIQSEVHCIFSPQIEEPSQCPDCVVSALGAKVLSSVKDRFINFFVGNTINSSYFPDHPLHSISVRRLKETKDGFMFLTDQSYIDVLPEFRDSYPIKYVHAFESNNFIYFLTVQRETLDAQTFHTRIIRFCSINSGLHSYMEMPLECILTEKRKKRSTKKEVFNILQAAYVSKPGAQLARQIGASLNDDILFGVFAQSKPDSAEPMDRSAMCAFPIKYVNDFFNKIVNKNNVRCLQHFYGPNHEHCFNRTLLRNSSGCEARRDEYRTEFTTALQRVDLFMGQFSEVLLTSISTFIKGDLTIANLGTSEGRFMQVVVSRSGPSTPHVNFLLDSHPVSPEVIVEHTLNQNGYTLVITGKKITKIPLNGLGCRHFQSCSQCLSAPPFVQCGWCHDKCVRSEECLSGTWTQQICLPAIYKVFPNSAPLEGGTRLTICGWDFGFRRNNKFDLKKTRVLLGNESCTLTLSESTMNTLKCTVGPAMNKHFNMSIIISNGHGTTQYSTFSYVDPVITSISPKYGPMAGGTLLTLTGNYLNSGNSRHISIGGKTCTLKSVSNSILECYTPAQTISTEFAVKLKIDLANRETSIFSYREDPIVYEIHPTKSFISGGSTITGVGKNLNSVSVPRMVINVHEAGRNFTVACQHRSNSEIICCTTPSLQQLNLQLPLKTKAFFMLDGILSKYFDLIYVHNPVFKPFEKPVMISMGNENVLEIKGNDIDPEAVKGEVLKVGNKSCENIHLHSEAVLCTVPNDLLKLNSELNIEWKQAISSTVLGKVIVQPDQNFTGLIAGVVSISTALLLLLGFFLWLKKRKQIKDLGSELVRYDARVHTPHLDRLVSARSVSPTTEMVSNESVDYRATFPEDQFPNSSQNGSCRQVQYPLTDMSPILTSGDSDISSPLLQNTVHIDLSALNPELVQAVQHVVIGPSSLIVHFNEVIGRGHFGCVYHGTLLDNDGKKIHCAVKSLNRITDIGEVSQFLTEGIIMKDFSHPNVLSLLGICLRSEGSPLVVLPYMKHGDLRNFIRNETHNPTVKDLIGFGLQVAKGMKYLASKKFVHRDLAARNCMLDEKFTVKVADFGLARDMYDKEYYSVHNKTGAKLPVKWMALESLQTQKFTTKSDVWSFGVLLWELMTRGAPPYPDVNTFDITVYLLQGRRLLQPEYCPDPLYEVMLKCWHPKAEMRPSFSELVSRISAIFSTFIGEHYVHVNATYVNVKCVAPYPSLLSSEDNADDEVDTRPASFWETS

T1 sequence (P08581 25-1390): as the sequence (P08581 25-1390 limits assumed) above
T2 sequence (P35968 20-1356): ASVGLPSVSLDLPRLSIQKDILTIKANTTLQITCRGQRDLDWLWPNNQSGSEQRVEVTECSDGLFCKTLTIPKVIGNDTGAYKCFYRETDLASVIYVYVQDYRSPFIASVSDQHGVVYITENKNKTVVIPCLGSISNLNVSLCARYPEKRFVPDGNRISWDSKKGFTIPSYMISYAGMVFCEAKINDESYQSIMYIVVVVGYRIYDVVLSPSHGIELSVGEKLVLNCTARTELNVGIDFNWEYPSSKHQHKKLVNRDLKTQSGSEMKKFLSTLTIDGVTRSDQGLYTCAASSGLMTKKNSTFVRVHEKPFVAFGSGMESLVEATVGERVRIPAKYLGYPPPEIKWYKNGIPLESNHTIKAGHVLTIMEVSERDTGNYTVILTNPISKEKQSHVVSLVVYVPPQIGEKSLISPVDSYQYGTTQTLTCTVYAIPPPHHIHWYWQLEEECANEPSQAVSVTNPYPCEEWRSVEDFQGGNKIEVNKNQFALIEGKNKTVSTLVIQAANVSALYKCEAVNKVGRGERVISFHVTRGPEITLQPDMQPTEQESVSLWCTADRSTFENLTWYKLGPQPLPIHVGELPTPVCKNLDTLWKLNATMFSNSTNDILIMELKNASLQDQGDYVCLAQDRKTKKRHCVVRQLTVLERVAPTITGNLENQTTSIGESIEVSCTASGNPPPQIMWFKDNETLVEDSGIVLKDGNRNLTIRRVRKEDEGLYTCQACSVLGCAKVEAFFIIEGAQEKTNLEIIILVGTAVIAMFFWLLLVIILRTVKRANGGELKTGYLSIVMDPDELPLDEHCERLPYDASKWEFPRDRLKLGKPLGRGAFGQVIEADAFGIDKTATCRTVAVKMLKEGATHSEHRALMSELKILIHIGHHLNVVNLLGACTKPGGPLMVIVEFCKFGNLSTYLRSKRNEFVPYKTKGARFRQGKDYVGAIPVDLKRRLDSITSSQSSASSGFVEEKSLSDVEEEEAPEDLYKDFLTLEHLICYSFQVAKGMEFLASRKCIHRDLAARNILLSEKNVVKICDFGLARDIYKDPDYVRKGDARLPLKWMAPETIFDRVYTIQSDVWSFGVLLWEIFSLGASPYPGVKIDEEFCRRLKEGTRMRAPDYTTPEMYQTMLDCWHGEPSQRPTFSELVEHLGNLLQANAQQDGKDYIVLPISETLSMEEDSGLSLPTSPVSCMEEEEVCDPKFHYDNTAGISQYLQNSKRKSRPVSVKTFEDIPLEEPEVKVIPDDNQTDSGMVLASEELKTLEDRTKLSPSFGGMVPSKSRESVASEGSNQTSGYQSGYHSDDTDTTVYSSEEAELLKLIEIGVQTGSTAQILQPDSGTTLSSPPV

For “CRQFNRRTHEVWNLDCGAAPAAPAPAAPAAPAPAAPAAPGCRQFNRRTHEVWNLDC (disulfide 1-16, 41-56; also: PEG11) [PAS-aMD4dY-PEG11]”, the “maximum activity compared with HGF” value (Met; Example 6, AET form 0 to 800 ng/mL, PAS form culture supernatant diluted 10-fold) was “comparable to 100 ng/mL HGF”.

“MAETCRQFNRRTHEVWNLDCGAAPAAPAPAAPAAPAPAAPAAPGCRQFNRRTHEVWNLDC (disulfide 5-20, 45-60) [MAET-aMD4dY-PAS22]” was tested, and the Met activation ability (Met) was “had Met activation ability”.

With “CRQFNRRTHEVWNLDC (disulfide 1-16) [aMD4dY, reference compound]” the “signal activation ability, dimer versus monomer” value (Met; Example 43, FIG. 76) was “showed no signal activation ability”.

With “MAETAGPTWCEDDWYYCWLFGTAAPAAPAPAAPAAPAPVCWEDSWGGEVCWLFGT (disulfide 10-17, 40-50) [MAET-VEGFR_D2-PAS16]” the “VEGF inhibitory activity (relative VEGF activity)” value (VEGFR; Example 39, cell-free expression solution, FIGS. 71 and 72) was “higher inhibitory activity than MAET-VEGFR_D2-PAS100-b; also recorded: higher inhibitory activity than MAET-VEGFR_D2-GS16”.

For “MAETCRQFNRRTHEVWNLDCGAAPAAPAPGCRQFNRRTHEVWNLDC (disulfide 5-20, 31-46) [MAET-aMD4dY-PAS8]”, the Met activation ability (Met) was “had Met activation ability”.

In the case of “AETAGPTWCEDDWYYCWLFGTAAPAAPAPAAPAAPAPVCWEDSWGGEVCWLFGT (disulfide 9-16, 39-49) [AET-VEGFR_D2-PAS16]”, the IC50 (VEGFR) is reported as 0.26 nM and the “VEGF inhibitory activity (relative VEGF activity)” value (VEGFR; Example 29, purified by HPLC, 4 hours, FIG. 47) is reported as “higher inhibitory activity than the monomer peptides P3 and Pm4”.

B1: AET-aMD4dY-PAS49 (peptide)
peptide: AETCRQFNRRTHEVWNLDCGAAPAAPAPAAPAAPAPAAPAAPAPAAPAAPAPAAPAAPAPAAPAAPAPAGCRQFNRRTHEVWNLDC
modifications: two disulfide bonds in the molecule
With B1 the “Emax (%)” value (Met (HGF receptor)) was 82.8%.

B2: AET-aMD4dY-PAS200 (peptide)
peptide: AETCRQFNRRTHEVWNLDCGAAPAAPAPAAPAAPAPAAPAAPAPAAPAAPAPAAPAAPAPAAPAAPAPAAPAAPAPAAPAAPAPAAPAAPAPAAPAAPAPAAPAAPAPAAPAAPAPAAPAAPAPAAPAAPAPAAPAAPAPAAPAAPAPAAPAAPAPAAPAAPAPAAPAAPAPAAPAAPAPAAPAAPAPAAPAAPAPAAPAAPAPAAPAAPAPAAPAAPAPGCRQFNRRTHEVWNLDC
modifications: two disulfide bonds in the molecule
In the case of B2, the “Emax (%)” value (Met (HGF receptor)) is reported as 20.4%.

B3: AET-PAS-aMD4dY-PEG11 (peptide)
peptide: AETCRQFNRRTHEVWNLDCGAAPAAPAPAAPAAPAPAAPAAPGCRQFNRRTHEVWNLDC
modifications: disulfide 4-19, 44-59; also: PEG11 in name, stated same as AET-aMD4dY-PAS22
With B3 the “Emax (%)” value (Met (HGF receptor)) was 100%.

B4: AET-aMD4dY-GS22 (peptide)
peptide: AETCRQFNRRTHEVWNLDCGGGGGSGGGGSGGGGSGGGGSGGGCRQFNRRTHEVWNLDC
modifications: disulfide 4-19, 44-59
For B4, the “Emax (%)” value (Met (HGF receptor)) was 32.3%.

B5: AET-aMD4dY-PAS100 (peptide)
peptide: AETCRQFNRRTHEVWNLDCGAAPAAPAPAAPAAPAPAAPAAPAPAAPAAPAPAAPAAPAPAAPAAPAPAAPAAPAPAAPAAPAPAAPAAPAPAAPAAPAPAAPAAPAPAAPAAPAPAAPAGCRQFNRRTHEVWNLDC
modifications: two disulfide bonds in the molecule
For B5, the “Emax (%)” value (Met (HGF receptor)) was 47.2%.

B6: AET-aMD4dY-GS15 (peptide)
peptide: AETCRQFNRRTHEVWNLDCGGGGGSGGGGSGGGGSGCRQFNRRTHEVWNLDC
modifications: disulfide 4-19, 37-52
B6 was tested, and the “Emax (%)” value (Met (HGF receptor)) was 45.8%.

For AETCRQFNRRTHEVWNLDCGAAPAAPAPGCRQFNRRTHEVWNLDC (disulfide 4-19, 30-45) [AET-aMD4dY-PAS8], the “Emax (%)” value (Met (HGF receptor)) was 56.4%.

B7: AETCRQFNRRTHEVWNLDCGAAPAAPAPAAPAAPAPAAPAAPGCRQFNRRTHEVWNLDCGAAPAAPAPAAPAAPAPAAPAAPGCRQFNRRTHEVWNLDC (peptide)
chain: AETCRQFNRRTHEVWNLDCGAAPAAPAPAAPAAPAPAAPAAPGCRQFNRRTHEVWNLDCGAAPAAPAPAAPAAPAPAAPAAPGCRQFNRRTHEVWNLDC
modifications: AET-aMD4dY-PAS22-Trimer; DISULFID (4)..(19) Disulfid bridge between Cys-4 and Cys-19; DISULFID (44)..(59) Disulfid bridge between Cys-44 and Cys-59; DISULFID (84)..(99) Disulfid bridge between Cys-84 and Cys-99
With B7 the “signal activation ability, trimer versus dimer” value (Met; Example 42, culture supernatant diluted, FIG. 75) was “signal activation ability similar to the dimer peptide”.

B8: MAETCYRQFNRRTHEVWNLDCGAAPAAPAPAAPAAPAPAAPAAPGCRQFNRRTHEVWNLDC (peptide)
chain: MAETCYRQFNRRTHEVWNLDCGAAPAAPAPAAPAAPAPAAPAAPGCRQFNRRTHEVWNLDC
modifications: disulfide 5-21, 46-61
In the case of B8, the Met activation ability (Met) is reported as “had Met activation ability”.

Source: patent US20220396819A1, “METHOD FOR PRODUCING PEPTIDE HAVING PHYSIOLOGICAL ACTIVITY, AND PEPTIDE COMPRISING SHORT LINKER” (priority 2019, published 2022)
